Assay results taken from patent publication US20100129369A1 (Eli Lilly, published 2010).

Columns and labels:
PlexinA2-ECD-Fc = biological target: T1, PlexinA2-ECD-Fc (human, UniProt O75051 35-1237); test: ELISA, coated ECD-Fc, antibody 2.143 ng/mL
T1 construct: extracellular domain; Bought reagent
T1 sequence (looked up): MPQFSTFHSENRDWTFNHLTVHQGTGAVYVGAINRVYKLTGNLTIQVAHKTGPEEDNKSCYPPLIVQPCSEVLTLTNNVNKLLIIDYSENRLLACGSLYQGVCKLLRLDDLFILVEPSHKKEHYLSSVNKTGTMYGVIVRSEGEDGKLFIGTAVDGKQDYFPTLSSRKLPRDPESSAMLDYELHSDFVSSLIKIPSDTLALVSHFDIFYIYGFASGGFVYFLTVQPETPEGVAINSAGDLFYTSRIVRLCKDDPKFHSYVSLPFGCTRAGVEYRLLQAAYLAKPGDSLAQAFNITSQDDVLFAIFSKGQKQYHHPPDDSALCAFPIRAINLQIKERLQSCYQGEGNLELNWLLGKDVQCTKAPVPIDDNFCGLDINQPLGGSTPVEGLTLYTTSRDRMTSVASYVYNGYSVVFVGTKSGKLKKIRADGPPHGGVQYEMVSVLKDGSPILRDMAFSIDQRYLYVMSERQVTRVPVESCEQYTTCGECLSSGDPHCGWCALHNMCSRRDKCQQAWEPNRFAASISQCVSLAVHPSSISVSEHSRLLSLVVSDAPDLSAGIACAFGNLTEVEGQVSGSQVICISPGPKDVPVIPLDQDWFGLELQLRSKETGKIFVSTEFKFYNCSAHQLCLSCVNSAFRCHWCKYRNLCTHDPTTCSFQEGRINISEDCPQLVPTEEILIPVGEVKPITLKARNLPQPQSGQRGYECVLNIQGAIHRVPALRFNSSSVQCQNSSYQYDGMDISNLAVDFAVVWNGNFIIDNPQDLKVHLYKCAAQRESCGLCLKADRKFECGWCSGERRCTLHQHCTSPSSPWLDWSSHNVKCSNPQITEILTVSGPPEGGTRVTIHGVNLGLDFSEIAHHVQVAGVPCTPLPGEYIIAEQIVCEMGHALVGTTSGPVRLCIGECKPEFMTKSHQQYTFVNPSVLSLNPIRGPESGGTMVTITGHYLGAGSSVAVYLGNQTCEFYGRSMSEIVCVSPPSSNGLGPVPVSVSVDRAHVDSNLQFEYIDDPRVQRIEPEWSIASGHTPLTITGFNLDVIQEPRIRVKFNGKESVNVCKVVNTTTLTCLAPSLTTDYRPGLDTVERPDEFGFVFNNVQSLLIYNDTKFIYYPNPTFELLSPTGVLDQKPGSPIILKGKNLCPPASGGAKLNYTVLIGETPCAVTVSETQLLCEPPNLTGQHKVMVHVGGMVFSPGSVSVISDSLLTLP
Description: (§1) Wells of 96-well EIA/RIA high binding plates (Costar, #2592) are coated with 100 μL of 1 μg/mL human c-Met extracellular domain (ECD)-Fc-Flis fusion (SEQ ID NO:72), RON-ECD-Fc (R&D Systems, #1947-MS), or PlexinA2-ECD-Fc (Abnova, Taipei, Taiwan #H00005362-P01) in coating buffer (BioFX Labs, # COAT-1000-01) overnight at 4° C. […] After the plates are washed, 100 μL/well of substrate solution (BioFx, #TMBW-1000-01) are added and the plates are incubated for 10 min. at room temperature. 100 μL/well of stop solution (BioFx, # LSTP-1000-01) are added to stop the reaction. The colorimetric signals are developed and read at 450 nm using a SpectraMax 190 plate reader (Molecular Devices, Sunnyvale, Calif.). c-Met antibody binding to c-Met, RON and PlexinA2 ECDs is proportional to color signal production.

Human c-Met-Flis-Fc ECD [1] = biological target: T2, Human c-Met-Flis-Fc ECD (human); test: ELISA, coated ECD-Fc, antibody 2.143 ng/mL
T2 construct: also called human c-Met extracellular domain (ECD)-Fc-Flis fusion; Human cMet-ECD-Fc-Flis
Description: as §1

Human c-Met-Flis-Fc ECD [2] = biological target: T2, Human c-Met-Flis-Fc ECD; test: SPR Biacore, antibody captured, ECD-Fc analyte, 1:1 model
Description: (§2) A Biacore® 2000 instrument is used to measure the binding kinetics of c-Met antibodies to human, cynomolgus monkey, and rat c-Met ECDs. Measurements are performed at 25° C. Samples are dissolved in HBS-EP buffer (150 mM sodium chloride, 3 mM EDTA, 0.005% (w/v) surfactant P-20, and 10 mM N-2-hydroxyethylpiperazine-N′-2-ethanesulfonic acid (HEPES) at pH 7.4; #BR-1001-88).
(§3) Binding is evaluated using multiple cycles. Each cycle is performed at a flow rate of 50 μL/min., and consists of the following steps: injection of about 10 μL of a c-Met antibody at 10 μg/mL aiming at a capture of 40-100 RUs, injection of 250 μL of human, cynomolgus, or rat c-Met-Flis-Fc ECD (starting at 100 nM and using two-fold serial dilutions for each cycle) followed by 20 min. for dissociation, and regeneration using about 30 μL of 10 mM glycine hydrochloride, pH 1.5. Association and dissociation rates for each cycle are evaluated using a “1:1 (Langmuir) binding” model in the BIAevaluation software, version 4.1.

[3] = biological target: T3, Cynomolgus Monkey c-Met-Flis-Fc ECD (cynomolgus monkey); test: as above
T3 construct: also called Cynomolgus Monkey cMet-ECD-Fc-Flis; cynomolgus monkey c-Met ECD
Description: as §2, §3

T3 sequence (chain, as listed by the source limits assumed): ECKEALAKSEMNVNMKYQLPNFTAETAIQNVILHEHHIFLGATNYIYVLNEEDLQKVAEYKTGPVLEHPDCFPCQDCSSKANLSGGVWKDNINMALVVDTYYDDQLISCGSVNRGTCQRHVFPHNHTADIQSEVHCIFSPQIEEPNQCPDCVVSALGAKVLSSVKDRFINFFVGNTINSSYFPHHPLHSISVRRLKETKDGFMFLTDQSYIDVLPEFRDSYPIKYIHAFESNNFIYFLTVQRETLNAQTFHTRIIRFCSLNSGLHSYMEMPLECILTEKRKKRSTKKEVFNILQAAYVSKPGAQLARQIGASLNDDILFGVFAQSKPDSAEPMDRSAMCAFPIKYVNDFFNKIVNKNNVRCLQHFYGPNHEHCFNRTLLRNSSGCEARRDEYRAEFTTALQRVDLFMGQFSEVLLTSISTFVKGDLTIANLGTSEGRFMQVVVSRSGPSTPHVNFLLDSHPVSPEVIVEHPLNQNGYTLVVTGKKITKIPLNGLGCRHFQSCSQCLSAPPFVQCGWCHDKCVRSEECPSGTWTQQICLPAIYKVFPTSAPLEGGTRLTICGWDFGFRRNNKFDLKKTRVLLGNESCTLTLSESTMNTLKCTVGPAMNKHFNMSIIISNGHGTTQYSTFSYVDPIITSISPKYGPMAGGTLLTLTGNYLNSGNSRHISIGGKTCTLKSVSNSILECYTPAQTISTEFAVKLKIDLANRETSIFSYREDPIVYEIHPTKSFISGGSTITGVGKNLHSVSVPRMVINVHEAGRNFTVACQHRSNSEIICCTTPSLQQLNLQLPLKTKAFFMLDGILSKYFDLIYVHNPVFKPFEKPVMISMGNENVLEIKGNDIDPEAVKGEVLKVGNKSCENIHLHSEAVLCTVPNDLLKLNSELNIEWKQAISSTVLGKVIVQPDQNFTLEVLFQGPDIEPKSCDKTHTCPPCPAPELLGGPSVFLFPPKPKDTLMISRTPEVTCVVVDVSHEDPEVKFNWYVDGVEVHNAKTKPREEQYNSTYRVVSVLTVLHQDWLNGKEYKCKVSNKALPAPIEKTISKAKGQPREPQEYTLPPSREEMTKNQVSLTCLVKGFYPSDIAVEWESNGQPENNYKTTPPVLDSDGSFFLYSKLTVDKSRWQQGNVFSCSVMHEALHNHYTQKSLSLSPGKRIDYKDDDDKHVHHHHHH
T2 sequence (chain, as listed by the source limits assumed): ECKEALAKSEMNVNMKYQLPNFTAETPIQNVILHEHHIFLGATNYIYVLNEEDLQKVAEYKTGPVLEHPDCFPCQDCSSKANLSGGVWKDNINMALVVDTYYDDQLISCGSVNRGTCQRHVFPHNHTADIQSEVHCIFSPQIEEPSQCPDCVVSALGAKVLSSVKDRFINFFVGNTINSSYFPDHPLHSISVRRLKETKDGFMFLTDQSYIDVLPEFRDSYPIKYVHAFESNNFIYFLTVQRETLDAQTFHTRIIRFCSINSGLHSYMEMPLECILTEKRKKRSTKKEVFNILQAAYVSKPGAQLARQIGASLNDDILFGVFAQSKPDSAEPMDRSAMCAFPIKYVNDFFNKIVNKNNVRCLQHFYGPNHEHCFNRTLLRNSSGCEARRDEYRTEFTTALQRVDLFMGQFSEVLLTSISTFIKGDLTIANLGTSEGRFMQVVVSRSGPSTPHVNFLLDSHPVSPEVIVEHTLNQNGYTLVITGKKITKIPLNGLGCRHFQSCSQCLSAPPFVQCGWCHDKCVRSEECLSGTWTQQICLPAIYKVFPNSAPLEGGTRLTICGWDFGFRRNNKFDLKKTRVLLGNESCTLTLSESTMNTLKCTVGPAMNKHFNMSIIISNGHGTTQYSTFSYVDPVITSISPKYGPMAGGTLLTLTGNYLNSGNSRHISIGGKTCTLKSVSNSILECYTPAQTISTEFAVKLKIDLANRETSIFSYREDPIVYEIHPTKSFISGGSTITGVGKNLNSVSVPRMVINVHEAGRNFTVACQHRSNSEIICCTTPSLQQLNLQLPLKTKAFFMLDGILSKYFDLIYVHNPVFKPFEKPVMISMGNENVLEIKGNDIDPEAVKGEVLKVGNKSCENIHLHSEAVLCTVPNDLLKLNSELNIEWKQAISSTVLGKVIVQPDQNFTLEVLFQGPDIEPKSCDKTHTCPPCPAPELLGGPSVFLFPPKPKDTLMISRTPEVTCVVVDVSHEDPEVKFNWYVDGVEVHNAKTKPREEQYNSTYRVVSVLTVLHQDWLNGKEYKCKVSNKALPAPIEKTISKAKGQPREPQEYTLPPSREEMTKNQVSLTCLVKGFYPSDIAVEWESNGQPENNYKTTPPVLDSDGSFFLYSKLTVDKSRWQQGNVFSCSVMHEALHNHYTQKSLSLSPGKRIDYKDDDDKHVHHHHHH

Average A450 nm (PlexinA2-ECD-Fc): 0.106 A450 nm
Average A450 nm (Human c-Met-Flis-Fc ECD [1]): 2.42 A450 nm
Kd (Human c-Met-Flis-Fc ECD [2]): 4 nM
koff (Human c-Met-Flis-Fc ECD [2]): 0.0003 s⁻¹
kon (Human c-Met-Flis-Fc ECD [2]): 160000 M⁻¹ s⁻¹
Kd [3]: 3.6 nM
koff [3]: 0.00045 s⁻¹
kon [3]: 140000 M⁻¹ s⁻¹
B1: C8-6 (antibody, human IgG2, kappa, V domains shown)
VH: QVQLVQSGAEVKKPGASVKVSCKASGYTFTDYYMHWVRQAPGQGLEWMGRVNPNRGGTTYNQKFEGRVTMTTDTSTSTAYMELRSLRSDDTAVYYCARTNWLDYWGQGTTVTVSS
VL: DIQMTQSPSSLSASVGDRVTITCSVSSSVSSIYLHWYQQKPGKAPKLLIYSTSNLASGVPSRFSGSGSGTDFTLTISSLQPEDFATYYCIQYSGYPLTFGGGTKVEIKR
notes: Called IgG4, kappa; also called Mab C8-6
